Patent US20240261333A1 (published 2024)

Assays:
[1] = target: T1, HNRNPU (UniProt Q00839 2-825); assay: co-IP, anti-FLAG, N-FLAG B3GNT2 cell lysate, mass spectrometry
T1 construct: also called NP_114032.2
Protocol: (§1) Cells were plated in 10-cm cell culture dishes and grown to 60-80% confluency. For each condition, two biological replicates were harvested for co-IP. Cells were washed with PBS and 4 mL of lysis buffer (20 mM HEPES, 1% Triton X-100, 150 mM NaCl, 1 mM EDTA, and 10% glycerol) containing protease inhibitor cocktail was added. Cells were scraped and lysate was incubated at 4° C. under rotary agitation for 1 h. Lysate was centrifuged at 14,000×g for 10 min at 4° C. Supernatant was transferred to a new tube and an aliquot was taken as the input. […] For Western blots, 10 μg/mL Chicken Anti-FLAG (Aves labs ET-DY100) and IgY control (R&D Systems AB-101-C) antibodies were biotinylated (Thermo Fisher Scientific 90407) and added to the respective conditions. Lysates with antibodies were incubated at 4° C. under rotary agitation overnight. For each mL of lysate, 50 μL of Pierce Protein A/G Magnetic Beads (Mass spectrometry; Thermo Fisher Scientific 88803) or Pierce Streptavidin Magnetic Beads (Western blot; Thermo Fisher Scientific 88817) was washed twice with lysis buffer. Lysates with antibodies were added to the beads and incubated at 4° C. under rotary agitation for 4 h. Beads were washed with lysis buffer 3 times and resuspended in lysis buffer for storage.
(§2) Magnetic beads were resuspended in 100 mM Tris pH 7.8, reduced, alkylated and digested with trypsin at 37° ° C. overnight. This solution was subjected to solid phase extraction to concentrate the peptides and remove unwanted reagents followed by injection onto a Shimadzu HPLC with fraction collector. Eight fractions were collected and after concentration were injected on a Waters NanoAcquity HPLC equipped with a self-packed Aeris 3 μm C18 analytical column 0.075 mm by 20 cm, (Phenomenex). Peptides were eluted using standard reverse-phase gradients. The effluent from the column was analyzed using a Thermo Orbitrap Elite mass spectrometer (nanospray configuration) operated in a data dependent manner for 54 minutes. The resulting fragmentation spectra were correlated against the known database using Proteome Discover 1.4 (Thermo Fisher Scientific).

[2] = target: RPL22 (UniProt P35268 2-128); assay: as above
Protocol: as §1, §2

[3] = target: RPS23 (UniProt P62266 2-143); assay: as above
Protocol: as §1, §2

[4] = target: T2, SBSN (human, UniProt Q6UWP8 26-590); assay: co-IP with anti-FLAG, N-FLAG B3GNT2, mass spectrometry
T2 construct: also called NP_00159506.1 (+2)
T2 sequence (looked up): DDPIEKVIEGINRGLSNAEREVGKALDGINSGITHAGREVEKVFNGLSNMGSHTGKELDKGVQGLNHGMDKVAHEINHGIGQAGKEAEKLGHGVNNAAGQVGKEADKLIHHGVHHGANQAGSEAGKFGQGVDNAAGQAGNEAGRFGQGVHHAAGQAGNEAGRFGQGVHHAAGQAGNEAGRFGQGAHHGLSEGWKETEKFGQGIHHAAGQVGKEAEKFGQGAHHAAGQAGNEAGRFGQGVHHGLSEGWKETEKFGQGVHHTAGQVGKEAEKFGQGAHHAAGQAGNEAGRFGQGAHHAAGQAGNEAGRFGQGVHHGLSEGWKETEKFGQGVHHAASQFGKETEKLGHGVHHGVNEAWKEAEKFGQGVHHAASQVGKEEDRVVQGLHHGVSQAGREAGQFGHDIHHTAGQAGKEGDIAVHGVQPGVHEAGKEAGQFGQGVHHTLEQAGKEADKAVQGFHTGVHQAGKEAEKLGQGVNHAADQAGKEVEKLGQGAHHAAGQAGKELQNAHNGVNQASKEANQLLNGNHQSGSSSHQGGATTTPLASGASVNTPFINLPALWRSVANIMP

[5] = target: T3, DDX17 (human, UniProt Q92841 1-729, limits assumed); assay: as above
T3 construct: also called NP_001091974.1

[6] = target: T4, DDX3X (human, UniProt O00571 2-662); assay: as above
T4 construct: also called NP_001180345.1 (+1)

[7] = target: T5, RPS24 (human, UniProt P62847-4 1-289, limits assumed); assay: as above
T5 construct: also called NP_001135757.1

[8] = target: RPS14 (human, UniProt P62263 2-151); assay: as above
[9] = target: T6, YBX1 (human, UniProt P67809 2-324); assay: as above
T6 construct: also called NP_004550.2

[10] = target: T7, SYNM (human, UniProt O15061 1-1565); assay: as above
T7 construct: also called NP_663780.2

[11] = target: T8, CCT3 (human, UniProt P49368 1-545); assay: as above
T8 construct: also called NP_005989.3
T8 sequence (looked up): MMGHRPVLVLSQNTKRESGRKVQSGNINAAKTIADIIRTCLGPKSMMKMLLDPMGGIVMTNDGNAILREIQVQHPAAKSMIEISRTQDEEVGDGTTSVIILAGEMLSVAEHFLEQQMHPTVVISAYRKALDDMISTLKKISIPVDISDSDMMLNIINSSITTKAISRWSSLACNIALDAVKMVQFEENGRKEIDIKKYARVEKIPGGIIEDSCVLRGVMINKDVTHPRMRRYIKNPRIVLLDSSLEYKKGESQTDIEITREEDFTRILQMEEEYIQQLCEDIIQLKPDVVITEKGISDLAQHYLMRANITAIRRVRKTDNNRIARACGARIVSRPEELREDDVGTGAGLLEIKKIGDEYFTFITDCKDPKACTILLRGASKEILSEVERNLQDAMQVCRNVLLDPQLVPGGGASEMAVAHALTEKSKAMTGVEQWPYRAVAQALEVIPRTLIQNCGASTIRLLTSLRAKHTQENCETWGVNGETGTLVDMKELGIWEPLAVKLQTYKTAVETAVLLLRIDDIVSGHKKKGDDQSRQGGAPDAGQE

[12] = target: RPL38 (human, UniProt P63173 1-70); assay: as above

T7 sequence (O15061 whole entry): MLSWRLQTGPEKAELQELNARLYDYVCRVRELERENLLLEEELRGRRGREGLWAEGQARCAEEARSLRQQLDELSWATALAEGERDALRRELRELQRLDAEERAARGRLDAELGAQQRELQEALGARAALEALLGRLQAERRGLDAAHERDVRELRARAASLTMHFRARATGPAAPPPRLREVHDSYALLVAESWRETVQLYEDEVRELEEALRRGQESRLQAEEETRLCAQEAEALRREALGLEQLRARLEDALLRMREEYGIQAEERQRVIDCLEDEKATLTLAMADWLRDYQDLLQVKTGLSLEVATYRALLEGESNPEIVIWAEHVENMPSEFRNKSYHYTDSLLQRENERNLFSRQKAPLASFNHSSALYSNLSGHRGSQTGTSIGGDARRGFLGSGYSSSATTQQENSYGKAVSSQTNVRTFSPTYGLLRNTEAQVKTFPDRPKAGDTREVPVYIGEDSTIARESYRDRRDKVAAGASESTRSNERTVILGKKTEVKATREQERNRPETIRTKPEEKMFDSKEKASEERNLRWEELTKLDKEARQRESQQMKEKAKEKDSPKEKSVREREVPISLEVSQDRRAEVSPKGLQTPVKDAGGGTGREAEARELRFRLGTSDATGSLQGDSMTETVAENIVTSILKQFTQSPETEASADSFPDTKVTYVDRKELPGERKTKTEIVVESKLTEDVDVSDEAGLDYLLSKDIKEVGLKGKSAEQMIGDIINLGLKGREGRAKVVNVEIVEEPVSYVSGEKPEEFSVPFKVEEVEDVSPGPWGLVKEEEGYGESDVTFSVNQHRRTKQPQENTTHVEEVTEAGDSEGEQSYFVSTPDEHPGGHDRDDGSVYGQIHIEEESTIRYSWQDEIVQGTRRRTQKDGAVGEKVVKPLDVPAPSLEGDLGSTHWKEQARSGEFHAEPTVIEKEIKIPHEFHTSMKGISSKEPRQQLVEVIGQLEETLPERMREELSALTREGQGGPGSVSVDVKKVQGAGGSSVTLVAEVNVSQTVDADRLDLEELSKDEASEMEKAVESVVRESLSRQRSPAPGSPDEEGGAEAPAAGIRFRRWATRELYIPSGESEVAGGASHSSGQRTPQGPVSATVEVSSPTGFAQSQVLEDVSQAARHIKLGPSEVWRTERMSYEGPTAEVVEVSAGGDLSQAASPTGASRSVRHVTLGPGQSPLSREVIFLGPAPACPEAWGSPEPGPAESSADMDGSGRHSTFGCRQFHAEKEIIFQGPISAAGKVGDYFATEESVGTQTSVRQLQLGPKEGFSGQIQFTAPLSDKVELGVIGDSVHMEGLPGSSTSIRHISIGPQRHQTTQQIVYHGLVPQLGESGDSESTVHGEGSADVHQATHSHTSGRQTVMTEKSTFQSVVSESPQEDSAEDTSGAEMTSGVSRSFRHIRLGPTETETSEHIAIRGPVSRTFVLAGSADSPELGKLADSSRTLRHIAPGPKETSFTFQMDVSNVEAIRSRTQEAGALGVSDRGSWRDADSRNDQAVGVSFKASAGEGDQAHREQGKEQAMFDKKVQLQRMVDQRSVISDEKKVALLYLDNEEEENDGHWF
T4 sequence (O00571 2-662 limits assumed): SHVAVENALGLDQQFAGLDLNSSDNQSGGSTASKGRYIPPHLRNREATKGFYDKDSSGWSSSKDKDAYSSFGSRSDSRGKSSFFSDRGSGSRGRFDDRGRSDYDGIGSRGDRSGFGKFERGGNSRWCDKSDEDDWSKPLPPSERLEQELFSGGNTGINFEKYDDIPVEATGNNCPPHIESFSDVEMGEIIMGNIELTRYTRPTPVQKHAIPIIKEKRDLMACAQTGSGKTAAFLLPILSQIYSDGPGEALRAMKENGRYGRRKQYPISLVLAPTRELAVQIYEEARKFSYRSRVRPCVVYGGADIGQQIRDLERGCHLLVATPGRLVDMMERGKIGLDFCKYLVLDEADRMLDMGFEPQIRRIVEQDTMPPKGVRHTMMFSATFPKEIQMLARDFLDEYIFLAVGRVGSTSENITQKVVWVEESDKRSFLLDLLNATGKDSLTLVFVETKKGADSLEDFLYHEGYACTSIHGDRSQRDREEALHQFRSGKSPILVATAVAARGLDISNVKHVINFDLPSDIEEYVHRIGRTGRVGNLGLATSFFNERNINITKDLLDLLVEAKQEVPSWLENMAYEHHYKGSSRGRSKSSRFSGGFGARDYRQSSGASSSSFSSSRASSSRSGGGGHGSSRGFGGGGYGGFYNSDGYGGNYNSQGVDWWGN
T6 sequence (P67809 2-324 limits assumed): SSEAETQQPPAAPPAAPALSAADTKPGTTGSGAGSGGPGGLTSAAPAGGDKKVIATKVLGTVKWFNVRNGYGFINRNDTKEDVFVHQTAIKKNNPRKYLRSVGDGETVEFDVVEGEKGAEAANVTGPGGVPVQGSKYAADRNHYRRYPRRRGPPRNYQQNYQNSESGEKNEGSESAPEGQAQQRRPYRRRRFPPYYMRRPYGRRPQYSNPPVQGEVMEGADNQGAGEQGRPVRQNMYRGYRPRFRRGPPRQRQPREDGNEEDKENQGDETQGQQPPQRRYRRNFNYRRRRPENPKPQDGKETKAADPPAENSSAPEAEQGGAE
T3 sequence (Q92841 whole entry): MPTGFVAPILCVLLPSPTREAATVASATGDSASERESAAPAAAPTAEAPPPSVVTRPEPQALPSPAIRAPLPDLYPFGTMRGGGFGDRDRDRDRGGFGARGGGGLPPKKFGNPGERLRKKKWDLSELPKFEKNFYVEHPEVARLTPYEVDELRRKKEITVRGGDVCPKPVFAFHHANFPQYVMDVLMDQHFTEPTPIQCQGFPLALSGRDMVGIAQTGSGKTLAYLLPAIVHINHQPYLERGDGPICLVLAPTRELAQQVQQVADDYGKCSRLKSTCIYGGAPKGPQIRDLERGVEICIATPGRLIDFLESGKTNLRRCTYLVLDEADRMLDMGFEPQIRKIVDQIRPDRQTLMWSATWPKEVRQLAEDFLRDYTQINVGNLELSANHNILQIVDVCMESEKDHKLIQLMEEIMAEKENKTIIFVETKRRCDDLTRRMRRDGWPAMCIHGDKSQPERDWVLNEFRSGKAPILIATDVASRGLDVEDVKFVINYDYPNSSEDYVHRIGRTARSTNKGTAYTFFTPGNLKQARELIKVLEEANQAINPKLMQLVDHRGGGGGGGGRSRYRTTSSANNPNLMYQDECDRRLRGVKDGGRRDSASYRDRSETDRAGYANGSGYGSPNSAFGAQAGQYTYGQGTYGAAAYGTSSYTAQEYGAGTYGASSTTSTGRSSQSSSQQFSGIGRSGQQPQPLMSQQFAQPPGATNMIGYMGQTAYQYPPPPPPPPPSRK
T1 sequence (Q00839 2-825 limits assumed): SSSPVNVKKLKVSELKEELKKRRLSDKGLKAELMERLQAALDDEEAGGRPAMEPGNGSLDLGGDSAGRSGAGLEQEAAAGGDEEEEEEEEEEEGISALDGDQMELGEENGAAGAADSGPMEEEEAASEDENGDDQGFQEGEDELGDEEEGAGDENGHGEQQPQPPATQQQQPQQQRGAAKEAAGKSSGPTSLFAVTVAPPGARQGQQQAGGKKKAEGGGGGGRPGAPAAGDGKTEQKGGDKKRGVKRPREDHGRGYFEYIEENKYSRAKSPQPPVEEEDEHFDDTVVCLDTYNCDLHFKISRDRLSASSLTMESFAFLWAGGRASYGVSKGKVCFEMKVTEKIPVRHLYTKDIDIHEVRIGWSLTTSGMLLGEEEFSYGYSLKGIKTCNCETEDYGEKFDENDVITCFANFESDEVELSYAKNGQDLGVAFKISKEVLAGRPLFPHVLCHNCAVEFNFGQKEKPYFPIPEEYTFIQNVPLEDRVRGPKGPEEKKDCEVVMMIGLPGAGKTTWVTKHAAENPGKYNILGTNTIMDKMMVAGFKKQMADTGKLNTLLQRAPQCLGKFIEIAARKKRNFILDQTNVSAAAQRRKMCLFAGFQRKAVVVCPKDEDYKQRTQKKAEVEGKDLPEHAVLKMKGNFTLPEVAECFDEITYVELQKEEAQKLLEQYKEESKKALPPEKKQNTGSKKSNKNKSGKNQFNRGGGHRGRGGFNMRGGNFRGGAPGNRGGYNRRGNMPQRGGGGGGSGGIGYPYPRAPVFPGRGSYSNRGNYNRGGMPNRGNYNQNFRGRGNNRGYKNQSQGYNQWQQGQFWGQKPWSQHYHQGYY
T5 sequence (P62847 other isoform, or with tags, fused parts or gaps limits assumed): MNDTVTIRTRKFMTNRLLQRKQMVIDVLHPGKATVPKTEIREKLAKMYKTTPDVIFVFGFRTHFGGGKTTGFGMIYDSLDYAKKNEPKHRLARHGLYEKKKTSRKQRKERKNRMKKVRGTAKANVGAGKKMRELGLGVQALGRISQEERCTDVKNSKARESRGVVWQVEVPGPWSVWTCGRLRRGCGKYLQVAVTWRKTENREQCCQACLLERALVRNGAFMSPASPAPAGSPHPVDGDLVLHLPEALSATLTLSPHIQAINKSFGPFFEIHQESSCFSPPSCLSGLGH

B1: N-terminal FLAG tagged B3GNT2 (enzyme, human, UniProt Q9NY97 1-397, looked up)
chain: MSVGRRRIKLLGILMMANVFIYFIMEVSKSSSQEKNGKGEVIIPKEKFWKISTPPEAYWNREQEKLNRQYNPILSMLTNQTGEAGRLSNISHLNYCEPDLRVTSVVTGFNNLPDRFKDFLLYLRCRNYSLLIDQPDKCAKKPFLLLAIKSLTPHFARRQAIRESWGQESNAGNQTVVRVFLLGQTPPEDNHPDLSDMLKFESEKHQDILMWNYRDTFFNLSLKEVLFLRWVSTSCPDTEFVFKGDDDVFVNTHHILNYLNSLSKTKAKDLFIGDVIHNAGPHRDKKLKYYIPEVVYSGLYPPYAGGGGFLYSGHLALRLYHITDQVHLYPIDDVYTGMCLQKLGLVPEKHKGFRTFDIEEKNKNNICSYVDLMLVHSRKPQEMIDIWSQLQSAHLKC
notes: Bait of the co-IP; pulled down with mouse anti-FLAG from cell lysate; also called N-FLAG B3GNT2; N-term FLAG; not shown: FLAG tag at the N-terminus
co-IP mass spectrometry count [1]: 0 | co-IP mass spectrometry count [2]: 0 | co-IP mass spectrometry count [3]: 9

B2: N-terminal FLAG tagged B3GNT2 (enzyme, human, UniProt Q9NY97 1-397, looked up)
chain: B1 chain
notes: FLAG-tagged ORF overexpressed in A375 cells; pulled down from the lysate with mouse anti-FLAG; also called N-FLAG B3GNT2; N-term FLAG; not shown: N-terminal FLAG tag
co-IP/MS count, N-term FLAG [4]: 27 | co-IP/MS count, N-term FLAG [5]: 23 | co-IP/MS count, N-term FLAG [6]: 18 | co-IP/MS count, N-term FLAG [7]: 0

B3: N-terminal FLAG tagged B3GNT2 (enzyme, human, UniProt Q9NY97 1-397, looked up)
chain: B1 chain
notes: FLAG-tagged ORF overexpressed in cells; pulled down from lysate with mouse anti-FLAG; also called N-FLAG B3GNT2; N-term FLAG; not shown: N-terminal FLAG tag
co-IP mass spectrometry count [8]: 11 | co-IP mass spectrometry count [9]: 2 | co-IP mass spectrometry count [10]: 5 | co-IP mass spectrometry count [11]: 0 | co-IP mass spectrometry count [12]: 9
